Legend:
[1] = substrate: CCCCCCCCCCCCCCC[C@@H](O)[C@H](CO)NC(=O)CCCCCCCCCCCC; assay: LC-MS/MS of C13-Cerd7 formed; Hanes-Woolf plot; type: biochemical, Homo sapiens; conditions: 0.2 M Tris/HCl pH 7, 0.2% Triton X-100, 1 mM NADPH, 37°C, deuterated substrate
Source text: LC-MS/MS of C13-Cerd7 formed; Hanes-Woolf plot on DEGS1

[2] = substrate: CCCCCCCCCCCCCCC[C@@H](O)[C@H](CO)NC(=O)CCCCCCCCCCCC; assay: LC-MS/MS of C13-Cerd7 formed; Hanes-Woolf plot; type: biochemical, Homo sapiens; conditions: homogenate of transfected KO-DES-HEK (80 μg, 30 min) plus 100 μg KO-DES-HEK homogenate, 0.2 M Tris/HCl pH 7, 0.2% Triton X-100, 1 mM NADPH, 37°C, deuterated substrate
Source text: LC-MS/MS of C13-Cerd7 formed; Hanes-Woolf plot on DEGS2

[3] = homogenate of transfected KO-DES-HEK (80 μg, 30 min) plus 100 μg KO-DES-HEK homogenate

| Protein | Km [1, 3] [µM] | further results |
| --- | --- | --- |
| DEGS1 (Homo sapiens) (protein, full-length cDNA (from Hep3B RNA) in pcDNA3, untagged, transfected into DEGS1-knockout HEK-293T (KO-DES-HEK); cell homogenate with Triton X-100) GSRVSREDFEWVYTDQPHADRRREILAKYPEIKSLMKPDPNLIWIIIMMVLTQLGAFYIVKDLDWKWVIFGAYAFGSCINHSMTLAIHEIAHNAAFGNCKAMWNRWFGMFANLPIGIPYSISFKRYHMDHHRYLGADGVDVDIPTDFEGWFFCTAFRKFIWVILQPLFYAFRPLFINPKPITYLEVINTVAQVTFDILIYYFLGIKSLVYMLAASLLGLGLHPISGHFIAEHYMFLKGHETYSYYGPLNLLTFNVGYHNEHHDFPNIPGKSLPLVRKIAAEYYDNLPHYNSWIKVLYDFVMDDTISPYSRMKRHQKGEMVLE |  | Km ([1]; homogenate of transfected KO-DES-HEK (40 μg, 10 min) plus 100 μg KO-DES-HEK homogenate): 2.41 µM |
| DEGS1 (Homo sapiens; L175Q) (protein, full-length cDNA (from Hep3B RNA) in pcDNA3, untagged, transfected into DEGS1-knockout HEK-293T (KO-DES-HEK); cell homogenate with Triton X-100) GSRVSREDFEWVYTDQPHADRRREILAKYPEIKSLMKPDPNLIWIIIMMVLTQLGAFYIVKDLDWKWVIFGAYAFGSCINHSMTLAIHEIAHNAAFGNCKAMWNRWFGMFANLPIGIPYSISFKRYHMDHHRYLGADGVDVDIPTDFEGWFFCTAFRKFIWVILQPLFYAFRPQFINPKPITYLEVINTVAQVTFDILIYYFLGIKSLVYMLAASLLGLGLHPISGHFIAEHYMFLKGHETYSYYGPLNLLTFNVGYHNEHHDFPNIPGKSLPLVRKIAAEYYDNLPHYNSWIKVLYDFVMDDTISPYSRMKRHQKGEMVLE | 5.99 |  |
| DEGS1 (Homo sapiens; N189D) (protein, full-length cDNA (from Hep3B RNA) in pcDNA3, untagged, transfected into DEGS1-knockout HEK-293T (KO-DES-HEK); cell homogenate with Triton X-100) GSRVSREDFEWVYTDQPHADRRREILAKYPEIKSLMKPDPNLIWIIIMMVLTQLGAFYIVKDLDWKWVIFGAYAFGSCINHSMTLAIHEIAHNAAFGNCKAMWNRWFGMFANLPIGIPYSISFKRYHMDHHRYLGADGVDVDIPTDFEGWFFCTAFRKFIWVILQPLFYAFRPLFINPKPITYLEVIDTVAQVTFDILIYYFLGIKSLVYMLAASLLGLGLHPISGHFIAEHYMFLKGHETYSYYGPLNLLTFNVGYHNEHHDFPNIPGKSLPLVRKIAAEYYDNLPHYNSWIKVLYDFVMDDTISPYSRMKRHQKGEMVLE | 2.75 |  |
| DEGS1 (Homo sapiens; N255S) (protein, full-length cDNA (from Hep3B RNA) in pcDNA3, untagged, transfected into DEGS1-knockout HEK-293T (KO-DES-HEK); cell homogenate with Triton X-100) GSRVSREDFEWVYTDQPHADRRREILAKYPEIKSLMKPDPNLIWIIIMMVLTQLGAFYIVKDLDWKWVIFGAYAFGSCINHSMTLAIHEIAHNAAFGNCKAMWNRWFGMFANLPIGIPYSISFKRYHMDHHRYLGADGVDVDIPTDFEGWFFCTAFRKFIWVILQPLFYAFRPLFINPKPITYLEVINTVAQVTFDILIYYFLGIKSLVYMLAASLLGLGLHPISGHFIAEHYMFLKGHETYSYYGPLNLLTFSVGYHNEHHDFPNIPGKSLPLVRKIAAEYYDNLPHYNSWIKVLYDFVMDDTISPYSRMKRHQKGEMVLE | 4.34 |  |
| DEGS1 (Homo sapiens; A280V) (protein, full-length cDNA (from Hep3B RNA) in pcDNA3, untagged, transfected into DEGS1-knockout HEK-293T (KO-DES-HEK); cell homogenate with Triton X-100) GSRVSREDFEWVYTDQPHADRRREILAKYPEIKSLMKPDPNLIWIIIMMVLTQLGAFYIVKDLDWKWVIFGAYAFGSCINHSMTLAIHEIAHNAAFGNCKAMWNRWFGMFANLPIGIPYSISFKRYHMDHHRYLGADGVDVDIPTDFEGWFFCTAFRKFIWVILQPLFYAFRPLFINPKPITYLEVINTVAQVTFDILIYYFLGIKSLVYMLAASLLGLGLHPISGHFIAEHYMFLKGHETYSYYGPLNLLTFNVGYHNEHHDFPNIPGKSLPLVRKIVAEYYDNLPHYNSWIKVLYDFVMDDTISPYSRMKRHQKGEMVLE | 3.29 |  |
| DEGS2 (Homo sapiens) (protein, full-length cDNA (from colon mucosa RNA) in pcDNA3, transfected into DEGS1-knockout HEK-293T (KO-DES-HEK); cell homogenate with Triton X-100) GNSASRSDFEWVYTDQPHTQRRKEILAKYPAIKALMRPDPRLKWAVLVLVLVQMLACWLVRGLAWRWLLFWAYAFGGCVNHSLTLAIHDISHNAAFGTGRAARNRWLAVFANLPVGVPYAASFKKYHVDHHRYLGGDGLDVDVPTRLEGWFFCTPARKLLWLVLQPFFYSLRPLCVHPKAVTRMEVLNTLVQLAADLAIFALWGLKPVVYLLASSFLGLGLHPISGHFVAEHYMFLKGHETYSYYGPLNWITFNVGYHVEHHDFPSIPGYNLPLVRKIAPEYYDHLPQHHSWVKVLWDFVFEDSLGPYARVKRVYRLAKDGL |  | Km [2]: 15.31 µM |

Reference: PMC10940770, “Loss of function and reduced levels of sphingolipid desaturase DEGS1 variants are both relevant in disease mechanism” (Journal of Lipid Research, 2024)
